Test results: publication PMC6138665 (2018)
Non-standard residues stand in square brackets, D forms with d. No end group written: not given here. pS = N[C@@H](COP(=O)(O)O)C(=O)O

Legend:
[1] = biological target: T1, GABARAP protein (recombinant) (UniProt O95166 1-117); assay: NMR; GABARAP residue I32
[2] = biological target: LC3A protein (recombinant) (UniProt Q9H492 1-121); assay: ITC
[3] = biological target: -L1 protein (recombinant) (UniProt Q9H0R8 1-117); assay: ITC
[4] = biological target: T2, LC3B protein (recombinant) (UniProt Q9GZQ8 1-120); assay: NMR
[5] = biological target: T2, LC3B protein (recombinant); assay: ITC
[6] = biological target: T1, GABARAP protein (recombinant); assay: ITC

T1 sequence (O95166 whole entry): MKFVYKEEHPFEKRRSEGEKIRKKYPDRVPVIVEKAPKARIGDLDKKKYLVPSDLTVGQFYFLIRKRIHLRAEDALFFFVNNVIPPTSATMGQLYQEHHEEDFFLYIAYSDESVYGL
Sequence of -L1 protein (recombinant) (Q9H0R8 whole entry): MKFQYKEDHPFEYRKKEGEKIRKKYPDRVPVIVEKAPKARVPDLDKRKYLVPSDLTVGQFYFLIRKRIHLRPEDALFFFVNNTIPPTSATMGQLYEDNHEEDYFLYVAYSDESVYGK

| Binder | Kd [1] | Kd [2] | Kd [3] | Kd [4] | Kd [5] | Kd [6] |
| --- | --- | --- | --- | --- | --- | --- |
| EALN[pS]GVEYYWDQLNET [AMBRA1-LIR peptide, S1014 phosphorylated (P1)] | 7 µM | ~50 µM | 25 µM | 46 µM | – | – |
| EALNSGVEYYWDQLNET [AMBRA1-LIR peptide, unphosphorylated (P0)] | 61 µM | – | > 50 µM | 193 µM | – | – |
| EALNDGVEYYWDQLNET [AMBRA1-LIR peptide, D-phosphomimicked (PM)] | – | – | – | – | ~50 µM | 31 µM |
